The target in the series is I-SceI mutants selected from G13/P14/N15/K20 saturation library (UniProt P03882). The experiment in a line: cell_activity. The settings on record: first selection round, library pool; individual mutants not given.
Sequence of UniProt P03882 (P03882 whole entry, change not shown): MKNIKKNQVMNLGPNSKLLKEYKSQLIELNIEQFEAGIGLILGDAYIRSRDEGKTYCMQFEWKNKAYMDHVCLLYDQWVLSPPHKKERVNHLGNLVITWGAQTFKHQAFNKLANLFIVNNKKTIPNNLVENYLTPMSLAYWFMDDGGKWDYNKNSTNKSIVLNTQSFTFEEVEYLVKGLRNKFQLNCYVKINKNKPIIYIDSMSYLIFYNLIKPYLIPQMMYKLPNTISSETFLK

Sequence “TAGGGATAACAGGGGTCT (double strand) [T3i1]” showed an activity (fold cell survival vs wild type) of 10.

The record behind these values is patent US9388233.
